The results in this text go back to publication PMC6222107 (The Journal of Biological Chemistry, 2018).

Data set [1] deals with CNC(Cc1ccc(O)c(O)c1)C(=O)O. In words: steady-state oxygen depletion, oxygen sensor. In kind it is biochemical, Aspergillus fumigatus. The following applies: pH 7.6, 25 °C, 100 mM Tris/HCl, 150 mM NaCl, air-saturated (O2 co-substrate). The source says:
(§1) steady-state oxygen depletion, oxygen sensor on FsqB

The test system of data set [2] is CNC(Cc1cccc(O)c1)C(=O)O. In words: steady-state oxygen depletion, oxygen sensor. In kind it is biochemical, Aspergillus fumigatus. The following applies: pH 7.6, 25 °C, 100 mM Tris/HCl, 150 mM NaCl, air-saturated (O2 co-substrate), error ± 0.6.
Source text: as §1

The subject of data set [3] is CN[C@@H](Cc1ccc(O)c(O)c1)C(=O)O. As to the kind of experiment: steady-state oxygen depletion, oxygen sensor. The following applies: pH 7.6, 25 °C, 100 mM Tris/HCl, 150 mM NaCl, air-saturated (O2 co-substrate). In kind it is biochemical, Aspergillus fumigatus.
Source text: as §1

The subject of data set [4] is CN[C@@H](Cc1ccc(O)cc1)C(=O)O. As to the kind of experiment: steady-state oxygen depletion, oxygen sensor. The data set is classed as biochemical, Aspergillus fumigatus. The following applies: pH 7.6, 25 °C, 100 mM Tris/HCl, 150 mM NaCl, air-saturated (O2 co-substrate).
Source text: as §1

Data set [5] deals with the molecule itself. As to the kind of experiment: crystal structure; hexagonal crystals (P6522), one chain in the asymmetric unit; dimer with a symmetry-related molecule by a crystallographic 2-fold axis, analysed with the EBI-Pisa server; 2.6 A.

Turning to FsqB (Aspergillus fumigatus Af293), the Km in data set [1] was found to be 160 ± 10 µM; in data set [2] it was 1600 ± 200 µM; in data set [3], 270 ± 20 µM; in data set [4], 2100 ± 200 µM. In addition, the kcat in data set [1] is 8.5 ± 0.1 s⁻¹; in data set [2] it was 3.5 ± 0.1 s⁻¹; in data set [3], 8.2 ± 0.2 s⁻¹; in data set [4], 3.9 ± 0.2 s⁻¹. The kcat/Km is 53000 ± 4000 M⁻¹ s⁻¹ in data set [1], 2180 ± 40 M⁻¹ s⁻¹ in data set [2], 30000 ± 3000 M⁻¹ s⁻¹ in data set [3] and 1910 ± 20 M⁻¹ s⁻¹ in data set [4].

B1: FsqB (fumisoquin biosynthesis gene B product), flavoprotein of the amine oxidase family (enzyme, Aspergillus fumigatus)
chain: MSIPNSFIIVGSGVFGLSLAYALSLDDRFADKKIILVDRWNFEPPNATGSVHNPAAANADTSRVIRRDYPHGPYASLALEAMKHWRGKFGENNRYVNQRLLFSGEGSSLTTPPKALETVNYIKKAYAISCELTPGGRDAVQVLDSLDEVRAFLGNTPSHPPHLPVNKDPAARDLRGYVSNDCGWADAGASIEWLRQEVLRLGRVECVVGEVESLVYSDDQRAVKGVKLVDGKVLTAELTVIAAGARSSHILGIPKLCDVYSEFVAYIQLTKEEADELRRRQWPILVNCHRGVFAVGPDHDNCLKFGHFSYSGIVDVLREASIQVPTRPDGWEAQQKYWSDPRFAFGGEVKVSALGDVDDYENPAAQRALADYRLFLLELLGPTGLQGVDTLGLDQSDNLLNNIANRPFTRVRKCWYNDTPALDFVVDYHPSYGKTLFVATGGCDHAFKFLPIIGEKTLALILRNRGDSAVSLPAGVEPSLEELSELWRFPVELLQDN
modifications: FAD covalently bound through its 8alpha-methyl group to Cys-414
notes: FsqB of Aspergillus fumigatus, gene Afu6g03440, codon-optimized synthetic gene in pET21a; the domains described in the structure span residues 1-496; Molecular mass printed as 55 kDa; Dimer generated by a crystallographic 2-fold axis; one chain in the asymmetric unit; also called WT FsqB; Afu6g03440
For the molecule B1, in data set [5], the binding result was “binds”.
